Here are results for 4 molecules from patent US20200299373A1.

For assay [1], the target named is T1, FAM19A5 epitope fragment F6 conjugated to BSA (human).
T1 chain: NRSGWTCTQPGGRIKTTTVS
Nature of the assay: ELISA, antigen coated on the plate, antibody in solution, absorbance at 492 nm. The conditions noted are these: remark: other sources report otherwise. A general note: In an ELISA, binding on a coated surface is turned into a signal by an enzyme label.

Assay [2] concerns the target T2, FAM19A5 epitope fragment F4 conjugated to BSA (human).
T2 chain: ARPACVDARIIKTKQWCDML
Described as above. The settings on record: remark: other sources report otherwise.

Assay [3] concerns the target T3, FAM19A5 epitope fragment F3 conjugated to BSA (human).
T3 chain: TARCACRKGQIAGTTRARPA
The description is as above. The settings on record: remark: other sources report otherwise.

Assay [4] deals with T4, FAM19A5 epitope fragment F1 conjugated to BSA (human).
T4 chain: QLAAGTCEIVTLDR
The description is as above. The conditions noted are these: remark: other sources report otherwise.

In assay [5] the target is T5, FAM19A5 epitope fragment F5 conjugated to BSA (human).
T5 chain: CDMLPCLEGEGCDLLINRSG
The assay is described as above. The conditions noted are these: remark: other sources report otherwise.

The target of assay [6] is recombinant human FAM19A5 protein (His-tagged) (human) (UniProt Q7Z5A7). Nature of the assay: ELISA on N'-Term His FAM19A5, fit of the titration (OD 492 nm); R2 printed 0.9329.
Assay [7] shares this target. Nature of the assay: ELISA on N'-Term His FAM19A5, fit of the titration; R2 printed 0.9329.
The target is the same in assay [8]. Nature of the assay: two-site sandwich ELISA; capture antibody P2-F11; S/N = O.D. at 10 ng/mL antigen / O.D. at 0 ng/mL; O.D. in column 0 printed 0.19.
The target is the same in assay [9]. Nature of the assay: two-site sandwich ELISA; capture antibody 13B4; biotinylated detection antibody 1-65; antigen in ng/mL.
Assay [10] shares this target. Nature of the assay: two-site sandwich ELISA; capture antibody P2-A03; biotinylated detection antibody 1-65; antigen in ng/mL.
Assay [11] has the same target. Nature of the assay: two-site sandwich ELISA; capture antibody 2-13; biotinylated detection antibody 1-65; antigen in ng/mL.
Assay [12] has the same target. Nature of the assay: ELISA on N'-Term His FAM19A5, fit of the titration (OD 492 nm); R2 printed 0.8806.
The target is the same in assay [13]. Nature of the assay: two-site sandwich ELISA; capture antibody 13B4; S/N = O.D. at 10 ng/mL antigen / O.D. at 0 ng/mL; O.D. in column 0 printed 0.15.
Assay [14] has the same target. Nature of the assay: two-site sandwich ELISA; capture antibody 3-2; S/N = O.D. at 10 ng/mL antigen / O.D. at 0 ng/mL; O.D. in column 0 printed 0.28.
Assay [15] shares this target. Nature of the assay: ELISA on coated FAM19A5, as in Example 6.
The target is the same in assay [16]. Nature of the assay: two-site sandwich ELISA; capture antibody P2-F11; biotinylated detection antibody 1-65; antigen in ng/mL.
Assay [17] shares this target. Nature of the assay: two-site sandwich ELISA; capture antibody P2-A03; S/N = O.D. at 10 ng/mL antigen / O.D. at 0 ng/mL; O.D. in column 0 printed 0.1.
The target is the same in assay [18]. Nature of the assay: ELISA, His-FAM19A5 (positive control) coated on the plate, absorbance at 492 nm.
Assay [19] has the same target. Nature of the assay: two-site sandwich ELISA; capture antibody 2-13; S/N = O.D. at 10 ng/mL antigen / O.D. at 0 ng/mL; O.D. in column 0 printed 0.55.
Assay [20] has the same target. Nature of the assay: two-site sandwich ELISA; capture antibody 3-2; biotinylated detection antibody 1-65; antigen in ng/mL.
Assay [21] has the same target. Nature of the assay: two-site sandwich ELISA; capture antibody 3-2; S/N = O.D. at 10 ng/mL antigen / O.D. at 0 ng/mL; O.D. in column 0 printed 0.13.
Assay [22] has the same target. Nature of the assay: two-site sandwich ELISA; capture antibody 2-13; biotinylated detection antibody 13B4; antigen in ng/mL.
Assay [23] shares this target. Nature of the assay: ELISA on N'-Term His FAM19A5, fit of the titration; R2 printed 0.8823.
Assay [24] shares this target. Nature of the assay: two-site sandwich ELISA; capture antibody 3-2; biotinylated detection antibody 13B4; antigen in ng/mL.
For assay [25] the target is unchanged. Nature of the assay: two-site sandwich ELISA; capture antibody P2-A03; biotinylated detection antibody 13B4; antigen in ng/mL.
Assay [26] has the same target. Nature of the assay: ELISA on N'-Term His FAM19A5, fit of the titration (OD 492 nm); R2 printed 0.8823.
Assay [27] shares this target. Nature of the assay: two-site sandwich ELISA; capture antibody P2-A03; S/N = O.D. at 10 ng/mL antigen / O.D. at 0 ng/mL; O.D. in column 0 printed 0.14.
Assay [28] has the same target. Nature of the assay: two-site sandwich ELISA; capture antibody 1-65; biotinylated detection antibody 13B4; antigen in ng/mL.
For assay [29] the target is unchanged. Nature of the assay: two-site sandwich ELISA; capture antibody P2-F11; S/N = O.D. at 10 ng/mL antigen / O.D. at 0 ng/mL; O.D. in column 0 printed 0.15.
For assay [30] the target is unchanged. Nature of the assay: two-site sandwich ELISA; capture antibody 1-65; S/N = O.D. at 10 ng/mL antigen / O.D. at 0 ng/mL; O.D. in column 0 printed 0.12.
Assay [31] shares this target. Nature of the assay: two-site sandwich ELISA; capture antibody 2-13; S/N = O.D. at 10 ng/mL antigen / O.D. at 0 ng/mL; O.D. in column 0 printed 0.21.
For assay [32] the target is unchanged. Nature of the assay: two-site sandwich ELISA; capture antibody P2-F11; biotinylated detection antibody 13B4; antigen in ng/mL.

Values joined by “and” are separate entries in the source; they are usually repeats but may differ in a detail not shown here. Equal values may be shown once.

B1: anti-FAM19A5 antibody 3-2 (antibody, V domains shown)
VH: not shown
VL: ALTQPSSVSANPGETVKITCSGGGSYAGSYYYGWYQQKAPGSAPVTLIYESNKRPSDIPSRFSGSTSGSTATLTITGVQADDEAIYYCGSWDSSNGGIFGAGTTLTVL
modifications: here or on the partner: conjugated to BSA
For B1, the O.D. was 0.05 in assay [1]; 0.05 in assay [2]; 0.06 and 0.05 in assay [3]; 0.06 and 0.05 in assay [4]; 0.05 in assay [5].

B2: 13F7 (antibody, V domains shown)
VH: QVQLQEWGAGLLKPSETLSLTCAINAESFNGYSWTWIRQTPGKGLEWIGEISHFGSANYNPSLKSRATISADKSKNQFSLKLTSVTAVDTAVYYCARALRGTYSRFYYGMDVWGQGTTVTVSS
VL: DIVMTQTPLSLPVAPGEPASISCRSSQSLLHSNGYNYLDWYVQKPGQPPQLLIYLGSNRASGVPDRFSGSGSGTDFTLKISRVEAEDVGVYYCMQARQTPLTFGGGTKVEIKR
Turning to B2, in assay [6], the Bmax came to 3.04. Besides, in assay [7], the Kd (commonly the equilibrium constant for the complex coming apart) amounted to 2.77 nM.

B3: anti-FAM19A5 antibody 1-65 (antibody, V domains shown)
VH: AVTLDESGGGLQTPGGALSLVCKASGFTFSSYQMGWVRQAPGKGLEWVGVINKSGSDTSYGSAVKGRATISRDNGQSTVRLQLNNLRAEDTGTYFCAKGSASYITAATIDAWGHGTEVIVSS
VL: ALTQPSSVSANPGETVKITCSGGGSSGYGYGWYQQKSPSSAPLTVIYWNDKRPSDIPSRFSGSKSGSTHTLTITGVQAEDEAVYFCGNDDYSSDSGYVGVFGAGTTLTVL
B3: the S/N was determined as 1.7 in assay [8]; 1 in assay [13]; 6.5 in assay [14]; 1.1 in assay [17]; 3.3 in assay [19]. Besides, the O.D., antigen 100 was 0.19 in assay [9]; 0.16 in assay [10]; 1.73 in assay [11]; 1.61 in [16]; 1.98 in assay [20]. Also, the O.D., antigen column 10 stood at 0.15 in assay [9]; 0.11 in assay [10]; 1.81 in assay [11]; 0.33 in assay [16]; 1.83 in assay [20]. Further, the Bmax in assay [12] stood at 3.26. In [15], the Kd was determined as 0.1 nM. In assay [18], the O.D. came to 3.95.

B4: anti-FAM19A5 antibody 13B4 (antibody, V domains shown)
VH: QVQLQESGPGLVKPSGTLSLNCAVSGGSISSSNWWSWVRQPPGKGLEWIGEIYHGGTTNYNPSLKGRVTMSVDKTKNQFSLRLSSVTAVDTAVYYCARWQLVGGLDVWGQGTTVTVSS
VL: SYELTQPLSVSVSPGQTASITCSGDKLGNVYASWYQQKPGQSPTLVIYQDNKRPSGIPERFSGSNSGKTATLTISGTQALDEADYYCQAWDSSTAVFGGGTKLTVLR
modifications: Biotinylated when used as detection antibody in FIG. 6B.
For the molecule B4, the S/N in assay [21] was 2.3; in assay [27], 1.1; in assay [29], 1.1; in assay [30], 1; in assay [31], 3.1. Further, the O.D., antigen 100 in [22] came to 1.92; in assay [24], 1.7; in assay [25], 0.15; in assay [28] it was 0.12; in assay [32], 0.14. Further, the O.D., antigen column 10 was found to be 0.65 in assay [22]; 0.3 in assay [24]; 0.16 in assay [25]; 0.12 in [28]; 0.16 in [32]. Moreover, the Kd in assay [23] came out at 1.06 nM. The Bmax in assay [26] worked out at 2.84.
